Where two headings read alike, the source gives them in different places.
Legend:
[1] = target: acrylodan-labeled FtsY C356 (E. coli) (UniProt P10121); assay: other fluorescence titration
[2] = target: acrylodan-labeled FtsY C356 (E. coli) (UniProt P10121); assay: other fluorescence titration; remark: listed apart in the source
[3] = target: RNC–SRP: coumarin-labeled SRP C235 loaded with ribosome–nascent chain complex (E. coli) (UniProt P0AGD7); assay: FRET or BRET
[4] = target: RNC–SRP: coumarin-labeled SRP C235 loaded with ribosome–nascent chain complex (E. coli) (UniProt P0AGD7); assay: FRET or BRET; remark: listed apart in the source

Substance | Kd [1] [nM] | Kd [2] [nM] | Kd [3] [nM] | Kd [4] [nM]
signal recognition particle (SRP): Ffh with 4.5S RNA (from UniProt P0AGD7 1-453) (complex) | 145 | < 4 |  | 
BODIPY-fluorescein–labeled FtsY C487 (from UniProt P10121 1-497) (receptor) |  |  | 68 | 104

From article PMC2928010
